Consider four molecules from PMC2965233.

The target of one data set is T1, ADF-1 (D. melanogaster) (Drosophila melanogaster, UniProt P05552 1-262).
T1 sequence: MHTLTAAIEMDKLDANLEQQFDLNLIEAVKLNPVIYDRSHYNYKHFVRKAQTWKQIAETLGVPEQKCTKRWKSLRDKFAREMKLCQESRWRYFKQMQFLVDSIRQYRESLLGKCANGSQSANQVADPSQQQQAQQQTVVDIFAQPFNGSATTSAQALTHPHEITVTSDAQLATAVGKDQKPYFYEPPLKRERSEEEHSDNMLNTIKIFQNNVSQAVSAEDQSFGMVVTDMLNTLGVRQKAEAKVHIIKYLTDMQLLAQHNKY
As to the kind of experiment: EMSA.

A further data set concerns the target T2, ADF-1 (D. funebris) (Drosophila funebris, UniProt E2DD98 1-262).
T2 sequence: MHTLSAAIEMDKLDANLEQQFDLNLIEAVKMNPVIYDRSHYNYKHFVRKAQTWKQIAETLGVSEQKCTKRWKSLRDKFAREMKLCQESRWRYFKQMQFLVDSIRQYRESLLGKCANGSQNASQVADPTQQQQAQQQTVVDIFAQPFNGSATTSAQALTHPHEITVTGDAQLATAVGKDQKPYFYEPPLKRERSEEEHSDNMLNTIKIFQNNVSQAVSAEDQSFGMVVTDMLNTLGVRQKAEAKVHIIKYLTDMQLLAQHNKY
As to the kind of experiment: EMSA.

B1: Oligo 2 (dsDNA)
DNA 1: ATCGACGTCAACGGCAGCGTTCACAT
DNA 2: ATGTGAACGCTGCCGTTGACGTCGAT
With B1, the figures for the dissociation constant (Kd) with ADF-1 (D. melanogaster) and with ADF-1 (D. funebris) were 4.07 µM and 5.05 µM, respectively.

B2: Oligo 1 (dsDNA)
DNA 1: ATCGACGTCGGCGTCGACATCGTGA
DNA 2: TCACGATGTCGACGCCGACGTCGAT
B2: the Kd came to 1.98 µM with ADF-1 (D. melanogaster) and 1.95 µM with ADF-1 (D. funebris).

B3: Oligo 4 (dsDNA)
DNA 1: TCGCTGTCTCAGTCGACGCTATTGAT
DNA 2: ATCAATAGCGTCGACTGAGACAGCGA
In the case of B3, the dissociation constant Kd came out at 1.63 µM in the data set with ADF-1 (D. melanogaster) and 1.86 µM with ADF-1 (D. funebris).

B4: Oligo 3 (dsDNA)
DNA 1: TCAATGTCGCCGTCGCTGTCTCAGTCG
DNA 2: CGACTGAGACAGCGACGGCGACATTGA
As for B4, the Kd with ADF-1 (D. melanogaster) was determined as 27.5 µM; with ADF-1 (D. funebris), 28.3 µM.
